# Measured values reported in US5981167A, “Surface plasmon resonance based enzymatic assay” (priority 1998, dated 1999).
# Key:
# [1] = test system: HCV protease His-NS3(183)Δ4AHT; details: concentrated enzyme
# [2] = target: maturation site peptide […] (CMV)
# [3] = test system: in vitro-translated 5A/5B substrate; experiment: Trans-cleavage assay in the presence of 4A peptide; format: biochemical, HCV; details: refolded protein
# Excerpt: Precipitation of protein occurred at the last step of dialysis, and the soluble protein was clarified by centrifugation. The overall protein recovery was about 0.10%.
molecule,measurement,setting,value
Biotin-DTEDVVAC SMSYTWTGK-pY,time to 50% substrate cleavage,[1],≤ 1 h
"CMV protease, refolded wild type (from UniProt P16753) (enzyme)",Km,[2],1020 µM
"HisHIV183: HCV NS3 protease without solubilizing motif, refolded from E. coli inclusion body pellet (protein) APITAYAQQTRGLLGCIITSLTGRDKNQVEGEVQIVSTATQTFLATCINGVCWTVYHGAGTRTIASPKGPVIQTYTNVDQDLVGWPAPQGSRSLTPCTCGSSDLYLVTRHADVIPVRRRGDSRGSLLSPRPISYLKGSSGGPLLCPTGHAVGLFRAAVCTRGVAKAVDFIPVENLETTMRSPV",activity in trans-cleavage assay,[3],active
